Source: patent US9394371

Assays:
[1] = biological target: T1, AIP-4 (S. aureus IV native cyclic signaling peptide) (Staphylococcus aureus); test: competition ELISA on AP4-BSA
[2] = biological target: T2, AIP-1 (S. aureus I native cyclic signaling peptide) (Staphylococcus aureus); test: competition ELISA on AP4-BSA
[3] = biological target: T1, AIP-4 (S. aureus IV native cyclic …); test: competition ELISA on AP4-BSA; remark: listed apart in the source
[4] = biological target: T1, AIP-4 (S. aureus IV native cyclic …); test: cell-based or functional assay
[5] = biological target: T2, AIP-1 (S. aureus I native cyclic …); test: competition ELISA on AP1-BSA
[6] = biological target: T1, AIP-4 (S. aureus IV native cyclic …); test: competition ELISA on AP4-BSA, tested 5 different times

Binder | Kd [1] | Kd [2] | Kd [3] | Real-Time PCR fold-change of eta mRNA in RN4850 [4] | Real-Time PCR fold-change of hla mRNA in RN4850 [4] | Real-Time PCR fold-change of rnaIII mRNA in RN4850 [4] | Real-Time PCR fold-change of spa mRNA in RN4850 [4] | rnaIII transcriptional level in S. aureus RN4850 during stationary growth phase (RT-PCR) [4] | Kd [5] | Kd [6]
AP4-24H11 (antibody, V domains shown) VH: EVKPQESGPGLVKPSQSLSLTCTVTGYSITSNYAWNWIRQFPGNKLEWMGFISSYGTTTYNPSLKSRFSITRDTSKNQFFLQLHSVTIEDTGTYFCTREGDYWGQGTTLTVSS VL: DIVMTQATLSLPVSLGDQASISCRSSQRLVPSNGNIYLHWFLQKPGQSPKLLIYKLSSRFSGVPDRFSGSGSGTDFTLKISRVESEDLGIYFCSQTTHVPYTFGGGTKLEIK | 90 nM | 5000 nM | 98 nM | -8.1 fold | -5.2 fold | -77 fold | 5.7 fold | > 50 fold | – | –
AP1-15B4 (antibody, V domains shown) VH: EVHLVESGGDLVKPGGSLKLSCAASGFAFSDFAMSWVRQTPEKRLEWVAIIKSDDSYTYYPDSVRDRFTISRDNARNTLYLQMTSLRSEDTALYYCTKIYDAYFYAMDYWGQGTSVTVSS VL: DIVRTQSPLSLSVSLGDQASISCRSSQSLLHSNGNTYLHWYLQKPGQSPKLLIYKVSNRFSGVPDRFSGSGSGTDFTLKISILEAEDLGIYFCSQSTHFPTFGGGTKLEIK | – | – | – | – | – | – | – | – | 800 nM | –
AP4-29E10 (antibody, V domains shown) VH: EVQLQQSGPELEKPGASVKISCKASGHSFTGYNMNWVKQSNDKSLEWIGNIAPYYGVTAYNQKFKGKATLTGDKSSSTAYMQLKSLASEDSAVYYCVLDTSGYASWGQGTLVTVSA VL: DIVMTQATASLTVSLGQRATISCRASKSVSTSGYSYMHWYQQKPGQPPKLLIYLASNLESGVPARFSGSGSGTDFTLNIHPVEEEDAATYYCQHSREVPYTFGGGTKLELK | 24 nM | 3000 nM | – | – | – | – | – | – | – | 2 to 110 nM
